Results from patent US20260034230A1 (Regeneron, published 2026).
Where a chain is given by its changes, count along the chain named.

B1: 12850B anti-hTfR monoclonal antibody (bivalent IgG1) (antibody, V domains shown)
VH: QVQLVQSGAEVKKPGSSVKVSCKASGGTFNTYAITWVRQAPGQGLEWMGGIIPISGIAEYAQKFQGRVTITTDDSSTTAYMELNSLRSEDTAVYYCASWNYALYYFYGMDVWGRGTTVTVSS
VL: not shown
notes: hIgG1/kappa; also called H1H12850B; REGN17516
B2: 31863B anti-hTfR monoclonal antibody (bivalent IgG1) (antibody, V domains shown)
VH: EVQLVESGGGLVQPGGSLRLSCAASGFTFNSYAMTWVRQAPGKGLEWVSFIGGSTGNTYYAGSVKGRFTISSDNSKKTLYLQMNSLRAEDTAVYYCAKGGAARRMEYFQHWGQGTLVTVSS
VL: DIQMTQSPSSLSASIGDRVTITCRASQGISNYLAWYQQKPGKVPKLLIYAASTLQSGVPSRFSGSGSGTDFTLTISSLQPEDVATYYCQNHNSVPLTFGGGTKVEIKR
notes: hIgG1/kappa
B3: 31874B anti-hTfR monoclonal antibody (bivalent IgG1) (antibody, V domains shown)
VH: EVQLVESGGGLVQPGGSLRLSCAASGFAFSSYAMTWVRQAPGKGLEWVSVISGTGGSTYYADSVKGRFTISRDNSKNTLYLQMNSLRAEDTAVYYCAKGGAARRMEYFQYWGQGTLVTVSS
VL: B2 VL with I15V, K45N, N90K, H91Y, V94A
notes: hIgG1/kappa; also called H1H31874B; REGN17517
B4: 12816B anti-hTfR monoclonal antibody (bivalent IgG1) (antibody, V domains shown)
VH: QVQLVESGGGLVKPGGSLRLSCAASGFTFSDYYMNWIRQAPGKGLEWVSYISSSGTTIYYADSVKGRFTISRDNAKKSLYLEMNSLRAEDTAVYYCAREGYGNDYYYYGIDVWGQGTTVTVSS
VL: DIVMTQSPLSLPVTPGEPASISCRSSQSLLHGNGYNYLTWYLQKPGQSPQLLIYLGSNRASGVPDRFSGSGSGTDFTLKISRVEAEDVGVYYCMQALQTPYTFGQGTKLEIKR
notes: hIgG1/kappa
B5: 12833B anti-hTfR monoclonal antibody (bivalent IgG1) (antibody, V domains shown)
VH: QVQLVESGGGVVQPGRSLRLSCAASGFTFSSFGMHWVRQAPGKGLEWVIFISYDGSDKYYADSVKGRFAISRDSSKNTLYLQMNSLRAEDTAVYYCAKENGILTDSYGMDVWGQGTTVTVSS
VL: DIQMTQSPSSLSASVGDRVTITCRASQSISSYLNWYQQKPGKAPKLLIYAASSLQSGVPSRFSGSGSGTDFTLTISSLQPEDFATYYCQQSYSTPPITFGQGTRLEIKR
notes: hIgG1/kappa
B6: 69261 anti-hTfR monoclonal antibody (bivalent IgG1) (antibody, V domains shown)
VH: B4 VH with D31V, T56S, K77N, E82Q, A97G, G102S, N103G, D104T, Y106S, I110M
VL: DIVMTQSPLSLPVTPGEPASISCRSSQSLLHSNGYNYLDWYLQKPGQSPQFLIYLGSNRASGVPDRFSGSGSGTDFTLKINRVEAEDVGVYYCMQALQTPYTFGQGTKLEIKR
notes: hIgG1/kappa
B7: 69263 anti-hTfR monoclonal antibody (bivalent IgG1) (antibody, V domains shown)
VH: EVQLVESGGGLVQPGRSLRLSCAVSGFTFDDYAMHWVRQAPGKGLEWVSGISWNSGTRGYADSVKGRFTISRDNAKNSLYLQMNSLRGEDTALYYCVKDITISPNYYGMDVWGQGTTVTVSS
VL: B2 VL with I15V, G28D, N31H, L33S, V43L, K45N, T72S, I75T, N90K, H91Y
notes: hIgG1/kappa
B8: 69307 anti-hTfR monoclonal antibody (bivalent IgG1) (antibody, V domains shown)
VH: EVQLVESGGGLVQPGGSLRLSCTASGFTFSNYWMTWVRQAPGKGLEWVANIKEDGSEKEYVDSVKGRFTISRDNAKNSLYLQMNSLRGEDTAVYYCARDGEQLVDYYYYYVMDVWGQGTTVTVSS
VL: DIQMTQSPSSVSASVGDRVTITCRASQGISSWLAWYQQKPGKAPKLLIYAASSLQSGVPSRFSGSGSGTDFTLTISSLQPEDFATYYCQKADSLPYAFGQGTKLEIKR
notes: hIgG1/kappa
B9: 69329 anti-hTfR monoclonal antibody (bivalent IgG1) (antibody, V domains shown)
VH: B8 VH with T23A, E59D
VL: B8 VL with D92N, L94F, A97T
notes: hIgG1/kappa
B10: 69323 anti-hTfR monoclonal antibody (bivalent IgG1) (antibody, V domains shown)
VH: EVQLVESGGGLVQPGRSLRLSCAASGFTFDDYAMHWVRQAPGKGLEWVSGISWNSGYIGYADSVKGRFTISRDNAENSLHLQMNSLRAEDTALYYCARGGSTLVRGVKGGYYGMDVWGQGTTVTVSS
VL: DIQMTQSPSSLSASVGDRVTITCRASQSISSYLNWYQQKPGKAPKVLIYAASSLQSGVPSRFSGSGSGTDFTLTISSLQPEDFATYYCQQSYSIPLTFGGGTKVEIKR
notes: hIgG1/kappa
B11: 69326 anti-hTfR monoclonal antibody (bivalent IgG1) (antibody, V domains shown)
VH: EVQLVESGGGLVQPGGSLRLSCAVSGFIFSSYEMNWVRQAPGKGLEWVSYISSSGSTIFYADSVKGRFTISRDNAKNSLYLQMNSLRAEDTAVYYCVSGVVLFDVWGQGTMVTVSS
VL: EIVMTQSPATLSVSPGERATLSCRASQSVSSNFAWYQQKPGQAPRLLIYSASSRATGIPVRFSGSGSGTEFTLTISSLQSEDFAVYYCQQYNIWPRTFGQGTKVEIKR
notes: hIgG1/kappa
B12: 69331 anti-hTfR monoclonal antibody (bivalent IgG1) (antibody, V domains shown)
VH: QVQLVESGGGVVQPGRSLRLSCIASGFTFSVYGIHWVRQAPGKGLEWMAVISHDGNIKHYADSVKGRFTISRDNSKNTLYLQINSLRTEDTAVYYCAKDTWNSLDTFDIWGQGTMVTVSS
VL: B2 VL with M4L, I15V, R24W, N31S, V43A, D70E, V83F, N90Q, H91L, V94Y
notes: hIgG1/kappa
B13: 69340 anti-hTfR monoclonal antibody (bivalent IgG1) (antibody, V domains shown)
VH: EVQLVESGGGLVQPGRSLRLSCAASGFTFDDKAMHWVRQVPGKGLEWISGISWNSGTIGYADSVKGRFIISRDNAKNSLYLQMNSLRAEDTALYYCAKDGDTSGWYWYGLDVWGQGTTVTVSS
VL: EIVLTQSPATLSLSPGERATLSCRASQSVSSYLAWYQQKPGQAPRLLIHDVSNRATGIPARFSGSGSGTDFTLTISSLEPEDFVVYYCQQRSDWPITFGQGTRLEIKR
notes: hIgG1/kappa
B14: 69348 anti-hTfR monoclonal antibody (bivalent IgG1) (antibody, V domains shown)
VH: QVQLVESGGGVVQPGRSLRLSCAASGFTFTTYGMHWVRQAPGKGLEWVAVIWYDGSNKYYGDSVKGRFTISRDNSKNTLYLQMNSLRVDDTAVYYCTRTHGYTRSSDGFDYWGQGTLVTVSS
VL: DIQMTQSPSSLSASVGDRVTITCRASQSIRNVLGWFQQKPGKAPQRLIYAASSLQSGVPSRFSGSGSGTEFTLTISSLQPEDFATYYCLQHNFYPLTFGGGTKVEIKR
notes: hIgG1/kappa
B15: 12795B anti-hTfR monoclonal antibody (bivalent IgG1) (antibody, V domains shown)
VH: EVQLVESGGGLVQPGGSLRLSCATSGFTFTSYDMKWVRQAPGLGLEWVSAISGSGGNTYYADSVKGRFTISRDNSRNTLYLQMNSLRAEDTAVYYCTRSHDFGAFDYFDYWGQGTLVTVSS
VL: B14 VL with S28G, N31D, V32H, L33F, F36Y, Q45K, Q55H, H91Y, N92D, F93T
notes: hIgG1/kappa
B16: 12798B anti-hTfR monoclonal antibody (bivalent IgG1) (antibody, V domains shown)
VH: EVQLVESGGDLVQPGRSLRLSCAASGFTFDDYAMHWVRQAPGKGLEWVSGISWNSATRVYADSVKGRFTISRDNAKNFLYLQMNSLRSEDTALYHCAKDMDISLGYYGLDVWGQGTTVTVSS
VL: not shown
notes: hIgG1/kappa; also called H1H12798B; REGN17507
B17: 12799B anti-hTfR monoclonal antibody (bivalent IgG1) (antibody, V domains shown)
VH: QITLKESGPTLVKPTQTLTLTCTFSGFSLSTSGVGVVWIRQPPGKALEWLALIYWNDHKRYSPSLGSRLTITKDTSKNQVVLTMTNMDPVDTATYYCAHYSGSYSYYYYGLDVWGQGTTVTVSS
VL: DIQMTQSPSSVSASVGDRVTITCRASQGIASWLAWYQQKPGKAPELLIYAASSLQGGVPSRFSGSGSGTDFTLTISSLQPEDFAIYYCQQANYFPWTFGQGTKVEIKR
notes: hIgG1/kappa; also called H1H12799B; REGN17508
B18: 12801B anti-hTfR monoclonal antibody (bivalent IgG1) (antibody, V domains shown)
VH: EVQLLESGGALVQPGGSLRLSCAASGFTFTSYAMHWVRQAPGKGLEWVSSIRGSGGGTYSADSVKGRFTISRDNSRDTLYLQMNSVRAEDTAVYYCARSHDYGAFDFFDYWGQGTLVTVSS
VL: B14 VL with S28G, N31T, V32D, F36Y, Q45K, Q79R, Y86F, H91Y, F93S
notes: hIgG1/kappa
B19: 12812B anti-hTfR monoclonal antibody (bivalent IgG1) (antibody, V domains shown)
VH: QVQLVQSGAEVKKPGSSVRVSCKASRGTFSSYAISWVRQAPGQGLEWMGGIIPIFGTANYAQKFLARVTITADESTSTAYMELSSLRSEDTAVYYCAREKGWNYFDYWGQGTLVTVSS
VL: B17 VL with S9P, A30S, E45K, G56S, I85T, Y93S, W96R
notes: hIgG1/kappa; also called H1H12812B; REGN17708
B20: 12834B anti-hTfR monoclonal antibody (bivalent IgG1) (antibody, V domains shown)
VH: QVQLVQSGAEVKKPGASVKVSCKASGYTFTSYGISWVRQAPGQGLEWMGWISVYHGNTNYAQKFQGRVTMTTDTSTSTAYMELRSLRSDDTAVYYCAREGYYDFWSGYYPFDYWGQGTLVTVSS
VL: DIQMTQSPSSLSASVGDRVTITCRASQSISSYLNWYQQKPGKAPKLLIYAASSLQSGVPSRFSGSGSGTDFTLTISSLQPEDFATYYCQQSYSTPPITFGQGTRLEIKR
notes: hIgG1/kappa
B21: 12839B anti-hTfR monoclonal antibody (bivalent IgG1) (antibody, V domains shown)
VH: QVQLVESGGGVVQPGRSLRLSCAASGFPFSNYVMYWVRQAPGKGLEWVALIFFDGKKNYHADSVKGRFTITRDNSKNMLYLQMNSLRPEDAAVYYCAKIHCPNGVCYKGYYGMDVWGQGTTVTVSS
VL: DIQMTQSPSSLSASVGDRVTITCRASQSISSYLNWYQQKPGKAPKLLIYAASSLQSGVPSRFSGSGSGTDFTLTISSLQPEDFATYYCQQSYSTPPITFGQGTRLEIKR
notes: hIgG1/kappa; also called H1H12839B; REGN17510
B22: 12841B anti-hTfR monoclonal antibody (bivalent IgG1) (antibody, V domains shown)
VH: EVQLVESGGGLVQPGGSLRLSCAASGFTFSNYWMNWVRQAPGKGLEWVANIKEDGGKKLYVDSVKGRFTISRDNAKNSLFLQMNSLRAEDTAVYYCAREDTTLVVDYYYYGMDVWGQGTTVTVSS
VL: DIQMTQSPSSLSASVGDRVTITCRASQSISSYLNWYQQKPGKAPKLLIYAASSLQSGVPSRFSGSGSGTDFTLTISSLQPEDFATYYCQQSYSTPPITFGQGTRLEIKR
notes: hIgG1/kappa; also called H1H12841B; REGN17511
B23: 12845B anti-hTfR monoclonal antibody (bivalent IgG1) (antibody, V domains shown)
VH: EVQLVESGGGLVQPGGSLRLSCAASGFTVSNYEMNWVRQAPGKGLEWVSYISSSTSNIYYADSVKGRFTISRDNAENSLYLQMNSLRVEDTAVYYCVRDGIVVVPVGRGYYYYGLDVWGQGTTVTVSS
VL: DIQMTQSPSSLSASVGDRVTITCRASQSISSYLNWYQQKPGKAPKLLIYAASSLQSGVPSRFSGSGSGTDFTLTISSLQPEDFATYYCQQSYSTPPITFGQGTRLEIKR
notes: hIgG1/kappa; also called H1H12845B; REGN17513

Experiments:
[1] = biological target: T1, REGN2431 (hmm.hTfRC): monomeric human Tfrc ectodomain (C89-F760) with N-terminal hexahistidine-myc-myc tag (human, UniProt P02786 89-760); assay: SPR Biacore, IgG captured by anti-hFc, 25 C
T1 construct: also called hmm.hTfR(C89-F763); hTFR-mmh
T1 sequence (P02786 other isoform, or with tags, fused parts or gaps): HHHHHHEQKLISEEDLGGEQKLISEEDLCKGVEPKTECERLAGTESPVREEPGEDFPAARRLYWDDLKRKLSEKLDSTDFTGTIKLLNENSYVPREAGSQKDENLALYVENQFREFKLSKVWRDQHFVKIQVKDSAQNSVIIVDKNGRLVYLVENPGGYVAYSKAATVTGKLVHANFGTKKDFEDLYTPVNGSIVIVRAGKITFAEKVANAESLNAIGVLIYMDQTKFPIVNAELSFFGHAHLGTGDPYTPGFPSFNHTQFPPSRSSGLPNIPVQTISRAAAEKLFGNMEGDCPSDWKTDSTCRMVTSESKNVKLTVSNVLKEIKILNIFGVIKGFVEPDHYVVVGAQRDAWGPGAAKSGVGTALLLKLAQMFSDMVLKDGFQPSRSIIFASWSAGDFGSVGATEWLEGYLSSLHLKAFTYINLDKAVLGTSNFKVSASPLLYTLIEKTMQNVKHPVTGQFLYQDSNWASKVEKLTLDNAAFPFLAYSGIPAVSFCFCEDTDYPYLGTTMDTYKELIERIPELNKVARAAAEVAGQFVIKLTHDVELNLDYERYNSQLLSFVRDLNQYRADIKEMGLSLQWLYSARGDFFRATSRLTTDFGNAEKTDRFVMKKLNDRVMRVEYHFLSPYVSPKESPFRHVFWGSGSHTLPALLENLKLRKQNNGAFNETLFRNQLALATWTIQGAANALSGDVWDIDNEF
Method: (§1) Biacore binding kinetics assays were conducted for the interaction of 32 anti-human TfR IgG1 monoclonal antibodies from CHO supernatants with TfR reagents at 25° C.
(§2) Equilibrium dissociation constants (KD) for the interaction of anti-TfR monoclonal antibodies with human and fascicularis monkey TfR ecto domain recombinant proteins were determined using a real-time surface plasmon resonance (SPR) based Biacore S200 biosensor. All binding studies were performed in 10 mM HEPES, 150 mM NaCl, 3 mM EDTA, and 0.05% v/v surfactant Tween-20, pH 7.4 (HBS-EP) running buffer at […]. The Biacore CM5 sensor surface was first derivatized by amine coupling with a monoclonal mouse anti-human Fc antibody (REGN2567) followed by a step to capture anti-TfR monoclonal antibodies in CHO conditioned media. […] The dissociation of TfR bound to anti-TfR monoclonal antibodies was monitored for 3 minutes in HBS-EP running buffer. At the end of each cycle, the anti-TfR monoclonal antibodies capture surface was regenerated using a 12-see injection of 20 mM H₃PO₄. The association rate (ka) and dissociation rate (kd) were determined by fitting the real-time binding sensorgrams to a 1:1 binding model with mass transport limitation using Scrubber 2.0c software. The dissociation equilibrium constant (KD) and dissociative half-life (t %) were calculated from the kinetic rate constants as: […]

[2] = biological target: T2, REGN2054 (mf TFRC ecto-mmh): monomeric monkey (cyno) Tfrc ectodomain (C89-F760) with C-terminal … (monkey (cyno, Macaca fascicularis), UniProt H9EXL1 89-760); assay: SPR Biacore, IgG captured by anti-hFc, 25 C
T2 construct: range 89-760; also called mfTFR-mmh; mfTfR-mmh
T2 sequence (chain, as listed by the source): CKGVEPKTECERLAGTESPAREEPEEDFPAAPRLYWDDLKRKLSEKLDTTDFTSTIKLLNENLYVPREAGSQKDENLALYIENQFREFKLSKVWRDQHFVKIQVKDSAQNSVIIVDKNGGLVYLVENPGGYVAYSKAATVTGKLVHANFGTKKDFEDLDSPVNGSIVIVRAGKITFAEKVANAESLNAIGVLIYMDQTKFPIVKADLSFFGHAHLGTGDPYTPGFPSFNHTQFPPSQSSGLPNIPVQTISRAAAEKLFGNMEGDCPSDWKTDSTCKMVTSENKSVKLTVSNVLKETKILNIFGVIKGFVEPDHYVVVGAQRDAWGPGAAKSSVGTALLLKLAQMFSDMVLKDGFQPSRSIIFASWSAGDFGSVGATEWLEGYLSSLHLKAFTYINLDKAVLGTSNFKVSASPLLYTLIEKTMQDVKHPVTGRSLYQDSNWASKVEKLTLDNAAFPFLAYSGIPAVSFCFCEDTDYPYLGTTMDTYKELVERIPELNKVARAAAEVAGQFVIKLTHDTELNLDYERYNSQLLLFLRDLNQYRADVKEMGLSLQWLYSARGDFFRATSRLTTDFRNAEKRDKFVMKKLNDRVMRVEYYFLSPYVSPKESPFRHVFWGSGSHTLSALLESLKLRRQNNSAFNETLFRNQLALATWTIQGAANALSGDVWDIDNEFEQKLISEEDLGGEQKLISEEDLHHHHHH
Method: as §1, §2

Row | Binder | t1/2 [1] | t1/2 [2]
1 | B1 | 657 min | 7.3 min
2 | B2 | > 1160 min | 3.9 min
3 | B3 | 100 min | 1.2 min
4 | B4 | 34.3 min | 23.8 min
5 | B5 | 45.9 min | 23.8 min
6 | B6 | 143 min | 28.7 min
7 | B7 | 10 min | 3.1 min
8 | B8 | 271 min | 
9 | B9 | 62.2 min | 
10 | B10 | 64.1 min | 1.1 min
11 | B11 | 45.1 min | 
12 | B12 | 2.5 min | 1.2 min
13 | B13 | 185 min | 16 min
14 | B14 | 67.2 min | 25.1 min
15 | B15 | > 1160 min | 162 min
16 | B16 | 183 min | 9 min
17 | B17 | 174 min | 71.2 min
18 | B18 | 276 min | 17.7 min
19 | B19 | 8.8 min | 
20 | B20 | 2.6 min | 
21 | B21 | 217 min | 
22 | B22 | 99.8 min | 
23 | B23 | 57.9 min | 
